In the DeepSol protein solubility set:

Experiment: soluble on expression in E. coli; label from the status in PepcDB or PDB records

Soluble on expression in E. coli, not soluble:
MGSDKIHHHHHHMLSGENKMLDIDKSTVDFLVTENMVQEVEKVLSHDVPLVHAIVEEMVKRDIDRIYFVACGSPLNAAQTAKHLADRFSDLQVYAISGWEFCDNTPYRLDDRCAVIGVSDYGKTEEVIKALELGRACGALTAAFTKRADSPITSAAEFSIDYQADCIWEIHLLLCYSVVLEMITRLAPNAEIGKIKNDLKQLPNALGHLVRTWEEKGRQLGELASQWPMIYTVAAGPLRPLGYKEGIVTLMEFTWTHGCVIESGEFRHGPLEIVEPGVPFLFLLGNDESRHTTERAINFVKQRTDNVIVIDYAEISQGLHPWLAPFLMFVPMEWLCYYLSIYKDHNPDERRYYGGLVEY
MGSDKIHHHHHHMLSRTASELYWMARYLERAESLARVLDVTYKLSMMPRHSQQQHDLALPLNLTMTHELFQQRYAHFSMNNLLNFFALDSENPSSIYNCIEMAWNNAHAVRGSLSSEVWECINTTRIDIRNLRHQGVDNIGINEFFDWVKERSHLFRGAMFGTLLRNDAQCFIRIGTLIERACATAQLLNVKHQQLHNDPDPVREYYRLDTLLRAVSAREAYHSIYRQPISPETVTELLVLREDVPRSLHACVGDLVLQLEAIGSQRAKVPHRLAHLLHVELRFSTLDDVLAQDLPTYLNNFIIKINELADSIRHTYLEAL
MGSDKIHHHHHHMLTASSITLQFASKPLFENVNVKFGDGNRYGLIGANGSGKSTFMKILAGELEPTAGNVSLDPGERMAWLRQDQFGYEDQRVLDVVMQGHVEMWRVMQEKDAIYMNPEASEEDYLRAAELEGKFGELGGYDAEARAGELLLGVGIPTEQHQGTMSQIAPGFKLRVLLAQALFSKPDILLLDEPTNNLDINTIRWLEQVLNESNATIVVISHDRHFLNQVCTHMADLDYGTIKVWPGNYDDYMLASSEAKARQAAANARAKDKVAELQEFVRRFSANKSKARQATSRMKMIDKIKIEDFKPSSRQNPYIRFEPEKALHRRALEVENLKFGYDAEPLFTNLGFSLEAGEKLAVIGGNGVGKSTLMKLLMGELTPAYGEIRWSENANVGYFSQDHVADFDMDLNLTDWMHQWTQAGDDEQVLRGILGRLLFSGDDVKKSVRVLSGGEKGRMLYGKLMLGRHNVLVMDEPTNHMDMESIESLNLALELFKGTLIFVSHDRQFVSSLATRILEITPQGVEFYMGNYDEYLHSKGLE
MGSDKIHHHHHHMLTDMQRDSASSSTVTTEQIVYGALPLTTINEPECRAIAITSINGSATLSGVSGPMGDQTDADLLIQLRGWADAIVVGAETARKENYGPVVLPHGIKNQRQKLGRCGLPKLTLLSKSLYFDFSSELFSPDLPSELSPLVITQQPANNSEQWDQRLQKLIDVGVEVIVAPTSTNPLKIAFDALHARRLKKISIEGGPSVYRQALSLGIVDRLHLTIAPNIICPVESPLFGKISDDSFTTRLVLEMLSSSPNGLIFSRYKVIRDTLGNPTQ
MGSDKIHHHHHHMMFESHSQIISAAEELLTKRYGGSQSLTDWDRLAGSGAAVVLRARVASSPFFPNRSVVVKYIPPTGRLIDESTLMREVVSYQFTTSLNADVRPGPVLLAYDVEQHLLVISDSGDGDTFAELLERHENDVRIGILRNLGEAIGKLHVGTAAKEQDFNILLHRMLVKHPEVQPMHGFRERLLRLNIGVGITLVEQAGITVPDVVKSFAQEAMRRLVTGQHRAFTPFDLSPDNIIVADRTEFLDYEWAGFRDAAFDVASVIAGFPQYLFARPVSDAEADIFIESWVQQVGDMWPNVRNTPRLHARILTALIGWAFSSVTMMYLGSSSEAYEELFHKIGTEKATAFDVEEIVKEIAATGDILLGTFVPETSEDADLVALLRQDLYETFEALNRFAQRESDTRFPVVADFAQAVVDLLTDDESTE
MGSDKIHHHHHHMMIQYPKLTISDRLNQHRERLPLADLQETFKESWTVNEKWQVTFAITDSLAYEQAIKLLDVQNIVHYDGQSYVIIQCTKTVSGGVSVYEVTASHLFYRLANNARQNNVKTGTLTYGLSEAVNFMLDNNDQGLTAKFIGDFPRIKIENLGNSSFNKFLQDYTSKFDASYVIDNQQIIFYSATYLKHQPVIDTLFYQHDVENVKLSLDTTSLANEVRCLGKPIDKSSGNNDSQTKYQVDFTYRDDASIQKWGLQRGDPLSDERFTDQGSMTEYARQTVQAQPIATLTTTAWNVTIKQCETVKLVMPNLDWQTTVALNGYERNPFNQFSLPTITFDNASLAVNDINVAMFKHITNAHNHVGKTMVQLMAALGDIQNGDLITDEDTIDKLNELGGIS
MGSDKIHHHHHHMMLQIPDVLSKAQVAQCRQMMDVADWTDGNATSGHQSALAKRNMQLPEGSPVARQIGDLIQDALGANATFFSAALPLKVFPPLFNRYEGGQAFDNHVDNAIRYLRGTGFRVRSDLSATLFLTEPQDYDGGELVIEDTYGQHRVKLPAGYMVLYPATSLHHVTPVTRGARVSSFFWIQSMVRDEGQRALLFELDTRIQQVAEEMGQKDSGVVGLTGVYHNLLRRWADA
MGSDKIHHHHHHMMPNPLLDIRIGTMVRANLEDPAAYVRQILPLGFESIQPFFWQTLGGKDLPRLAGEIREAIGDADVVVSSLGVFGNPLESGEVDRGVLAAWETVIDNAHLFGASMVSGFTGRLRGKKLTDSLPRFREVWGPLAKRAADKGVRIAFENCAMDGNWAVGDWNIAHNPDAWELMFNELPDDNLGLEWEPCHQLVYLIDPIPQIRKWAPRIFHVHGKDATVRWDVIREHGVFGRLPFVQMRTPGFGDSDWTRVISELRLAGYKGAIDIEGWHDPVYRDDLEITGQARALEYLKQCRGGASYLQNPT
MGSDKIHHHHHHMNAAENGLIPGAANSAGTKAYVARFAGTLADEHFSDFLNTRIKLSSLGVGTFPGGVDDVTDVAVAAIVARALQSGINVVDTGANYRLGRAGRAVGVGIAKAIAAGIQREEFFVVGKGGFLTFPDGRPEDPLTFFREEVAAKGLGKEEDLAQGVHCLSPEYIAWQLDTLRAQTGLGTLDVFLVDQPEVHIPLIGKEQMYRKLTDVFTMLEAAVQANKIRYYGISTFNACRVETDNTLFQSLTSLIGLAEKAAGQGNRHHLRVVQLPFNALMPEAYTRFSQVTGQGNIGSTIQAAFQLKLTIMASHPLGKGLLAREEVPSLQEAMPELADAAQRAIQFVRSTPGIGVTLVGLSTPLHLPDFLAVARQLPLSKERYLAMFEKEQ
MGSDKIHHHHHHMNAIAKHKENLLLDGFTIIDDIYSDEEVQQILAVIENADMSNETFRKSSDLFAIRQFLKEIPEAKELIYNKNLKKVGAELFGTDFFTVKSIYFDKPETSNWYVAYHQDLTISVDTKIDLAGFGPWTVKQNQFAVQPPLEILKNIFTIRIHLDDTNEENGALKVVPGSHAKNIYRPETIDWSVEKEISCNVKKGGIMIMKPLLLHSSGRTTNNKKRRVIHIEFSNQELPVELNWAERLN
MGSDKIHHHHHHMNAPAGGLSPALTPEAVADTTAMATETHILNPRFYTTDFDELDRVDVTPVRKDWDALIAEMKADPNKAHFKKTEAWDRIDWDGMDPALRVEFIDFLVSSCTAEFSGCVLYKEMKRRGSNPDIRELFNYMARDEARHAGFINDALREAGVAVNLGFLTKAKKYTYFRPKFIYYATYLSEKIGYARYITIYRHLEANPEHRFHPIFKWFKEWCNDEFRHGEAFALLMKTDPKLTDTTVNRLWIRFFLTAVYSTMWVRDHARPEFHKALGVDIDWYDQEVYRKTSEIARQIFPVELDIDHPRWKPALRRMNEAFLRIDRGTRRGGIAGRLEKALGGAQALAAFVSLYTIPVRTHTLPENVRLEPSY
MGSDKIHHHHHHMNAVTIFVHGFNGNADSTDHLIHGAQKNGWAQKMLVVKIKNDGAMDFDGELDQQVANPMVQVLFENNRAPERRQVSWMHQLLIKLRQSFGVEQYNGVGHSLGSNVLVNLAIKFGKDSRLPALKKLVTIAGPFNGLHGFLSQDTVKDVMTKSWEPNKRTHHFKKLVRNRHLFPKGAEVLNVIGSVDGILNNDVYVAVDSARAVGYLLDGVAAKVSELMVIGPDGYHCELNRSQNVSREINQFLWDEKYIAQDFKLINSYRADKVYQLAPEELNWAN
MGSDKIHHHHHHMNDPTFYRDGQGQPIQPDSAREAVAWLTQLMSDSVTEQDRREWQRWREASPDNEQAWQHIESVCANLGQLNARAAHQSLSTLNGMQRRSVLKALAILCLTGGAGMAGSRTDVWQSFTADYQTQVGEQRHAVLEDGTTLLLNTQTALNVAYGDDLRQLTLIRGEVMIETSQVEKAALYPRPFIVTTAQGKVQALGTRFSLRVQDEHTQVAVYDGAVRLHPQRNGQDVQVVKSGQTATFTTQRCGQIETEKAEPAWVKGQLLADNQRLVDFVDELSRYRSGVIRCQPEVESLRFSGVFPLSDTDNILAALAEALPVQVRYFSRYWVQIAAR
MGSDKIHHHHHHMNEKTSVSSDRRDFWDGRAREFSEHAASTGYPRAFLRILKPRKSWTVLDMACGGGTIAIPLANRVKFITAVDFSMRMLEIVEQRCLAGKITNVKTLQGRWEDDWDDLGIGVHDVAIASRSLLSETAMDSIAKLNRAATKAVYISVAVGSGPFDWRLLEAADRERNTRPDYIFYYNLLYEMGIPANVSFIPESYRNSWESHEEAFEDQLWMFQGMTGEEEEKVRAYLREHLVWVKGHWQLPYSRNYYWAVLYWTKDREIGS
MGSDKIHHHHHHMNFETVIGLEVHVELKTKSKIFSSSPTPFGAEANTQTSVIDLGYPGVLPVLNKEAVEFAMKAAMALNCEIATDTKFDRKNYFYPDNPKAYQISQFDKPIGENGWIEIEVGGKTKRIGITRLHLEEDAGKLTHTGDGYSLVDFNRQGTPLVEIVSEPDIRTPEEAYAYLEKLKSIIQYTGVSDCKMEEGSLRCDANISLRPIGQEEFGTKTELKNLNSFAFVQKGLEHEEKRQEQVLLSGGVIQQETRRYDEATKKTILMRVKEGSDDYRYFPEPDLVELYIDDEWKERVKASIPELPDERRKRYIEELGLPAYDAMVLTLTKEMADFFEETVQKGAEAKQASNWLMGEVSAYLNAEQKELADVALTPEGLAGMIKLIEKGTISSKIAKKVFKELIEKGGDAEKIVKEKGLVQISDEGVLLKLVTEALDNNPQSIEDFKNGKDRAIGFLVGQIMKASKGQANPPMVNKILLEEIKKR
MGSDKIHHHHHHMNGFCARLRAITHNERLKMKIAVLLSGGVDSSYSAYSLKEQGHELVGIYLKLHASEKKHDLYIKNAQKACEFLGIPLEVLDFQKDFKSAVYDEFINAYEEGQTPNPCALCNPLMKFGLALDHALKLGCEKIATGHYARVKEIDKISYIQEALDKTKDQSYFLYALEHEVIAKLVFPLGDLLKKDIKPLALNAMPFLGTLETYKESQEICFVEKSYIDTLKKHVEVEKEGVVKNLQGEVIGTHKGYMQYTIGKRKGFSIKGALEPHFVVGIDAKKNELVVGKKEDLATHSLKAKNKSLMKDFKDGEYFIKARYRSVPAKAHVSLKDEVIEVGFKEPFYGVAKGQALVVYKDDILLGGGVIV
MGSDKIHHHHHHMNIAIIGSGLTGSLAAISLAKAGCRVDLYERLSDEELVNRDRTYAITHSSRKILEKLGIWSNLSRDLVPFQFLNVIDYELNKKFVFLTNDLPIPDQKYSAVGWIAEHKFIMLSILSVISNLENINKIPTSVIPNTNNYDLIVAADGSSSNTKKKLNTPSFHFKYDQMCITAKVLLRGVKSNEAFEILNSEGPFAVLPLGGDLFQVICSQSILKGTYNMNLSKSLFLDYLSTILPYGIEPDTIIDSPESFPIDFCLNYLFFSGKYIYLGETAHKIHPVGGQGLNLCWRDVDCLSKLLSIPLLKNNHSLIPLIYSISRSFDVLSISILTDSLVRYSRSNISIFYLPRLLVFFILKKSSLFRKYILNLMTNGF
